In US20230374132A1 (Innovent, published 2023):
Positions count from the first letter of the chain named. Numbers in names are those of the source. Read-outs that look alike come from different tables or passages of the source. One block for each binder: values may come before it.

Experiments:
[1] = target: T1, human CLDN18.2 on tumor cells (NUGC-4; DAN-G-hCLDN18.2) (human, UniProt P56856-2 1-261); test: cell-based or functional assay
T1 sequence (looked up): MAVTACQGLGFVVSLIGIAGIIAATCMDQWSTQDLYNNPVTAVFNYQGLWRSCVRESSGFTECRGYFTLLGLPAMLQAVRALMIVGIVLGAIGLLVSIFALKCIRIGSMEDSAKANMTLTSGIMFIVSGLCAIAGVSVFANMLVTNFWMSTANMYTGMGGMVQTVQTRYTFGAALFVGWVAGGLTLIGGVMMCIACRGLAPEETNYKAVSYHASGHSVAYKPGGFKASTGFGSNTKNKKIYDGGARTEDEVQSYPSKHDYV

[2] = target: T2, human CD3 E&D complex protein (Sino Biological Inc., CT026H0323H) (human, UniProt P07766 23-126; P04234 22-105); test: BLI, antibody on sensor
T2 construct: bought heterodimer; also called human CD3 protein (CT026H0323H)
Description: The equilibrium dissociation constant (KD) of the bispecific antibody of the invention binding to human CD3 protein was determined by the Biolayer Interferometry (BLI). The affinity determination of BLI method was carried out according to the existing methods (Estep, P et al., High throughput solution based measurement of antibody-antigen affinity and affinity binding. MAbs, 2013.5 (2): 270-8).
An appropriate number of AHC (18-5060, Fortebio) sensors was taken and soaked in SD buffer (1×PBS, BSA 0.1%, Tween-20 0.05%) according to the number of samples at half an hour before the experiment. 100 μl of SD buffer, each bispecific antibody and human CD3 protein (CT026H0323H, Sino Biological Inc.) were added into 96-well black polystyrene semi-quantitative micro-well plate (Greiner, 675076). Fortebio Octet Red96 was used for detection, and the sensor position was selected according to the sample position. The setting parameters of the instrument were as follows: operation steps: Baseline, Loading-1 nm, Baseline, Association and Dissociation; the operation time of each step depended on the speed of sample combination and dissociation. The rotational speed was 1000 rpm and the temperature was 30° C. ForteBio Octet analysis software was used to analyze KD value.

[3] = target: T3, human Claudin 18.2 (GenScrip, P50251802) (human, UniProt P56856-2 1-261, limits assumed); test: SPR, antigen on chip
T3 construct: bought antigen coupled to the chip; also called human CLDN18.2; CLDN18.2
T3 sequence (looked up): T1 sequence (looked up)
Description: The equilibrium dissociation constant (KD) of binding to human CLDN18.2 was determined by surface plasma resonance (SPR). […] After coupling, 1 M ethanolamine was injected to block the remaining activation sites. According to the manufacturer's instructions, the binding and dissociation between the chip surface antigen and various bispecific antibodies in the mobile phase were detected by Biacore (GE Healthcare, T200) to obtain the affinity and kinetic constants. The antibody after serial dilution (0-100 nM, twice dilution) flowed through the chip surface in order from low concentration to high concentration, with binding time of 180 s and dissociation time of 600 s. Finally, 10 mM Glycine pH 1.5 (GE Healthcare, BR-1003-54) was used to regenerate the chip. The resulting data were analyzed using the Biacore T200 analysis software and the 1:1 combination model.

[4] = target: T4, human CD3 complex on Jurkat cells (human, UniProt P07766 23-207; P04234 22-171; P09693 23-182); test: flow cytometry on Jurkat cells (human CD3 complex), 'Jurkat cell line binding', Example 3.2 [cont) D]
T4 construct: whole, on cells; natural CD3 complex of Jurkat T cells (also used here for CD3 on T cells of human PBMC); also called human CD3 at the cell level; CD3 on T cells
Description: Jurkat cells are immortalized human T lymphocytes, which express human CD3 complex. The cell line is used to detect the binding of the antibody to the cell. The detailed operation was as follows: Jurkat cells (Promega, J1621) was inoculated into U-shaped 96-well plate, 2×10⁵ for each well. The antibodies to be detected at a series of concentration gradients (the initial concentration of antibody molecule is 500 nM, 3 folds serial dilution) was added into the corresponding cell well, incubated at 4° C. for 30 minutes, and then PBS was used to wash out the unbound part. The sheep anti-human Fc PE fluorescent second antibody (Southern Biotech, J2815-5H87B) was added, then incubated at 4° C. for 15 minutes. and detected by flow cytometry ([…] BD). […] Some of these antibodies were selected to make a further binding curve at cell level.

[5] = target: T2, human CD3 E&D complex protein (Sino …); test: BLI, antibody on sensor; remark: listed apart in the source
[6] = target: T5, human CD3E&G complex (Sino Biological Inc., CT041-H0305H) (human, UniProt P07766 23-126; P09693 23-116); test: BLI, antibody on sensor
T5 construct: bought heterodimer; also called human CD3E&G antigen

[7] = target: T2, human CD3 E&D complex protein (Sino …); test: BLI, antibody on sensor; remark: listed apart in the source
[8] = target: T6, cynomolgus monkey CD3 E&D complex protein (Sino Biological Inc., CT032-00323H) (cynomolgus monkey, UniProt Q95LI5 22-117; Q95LI8 22-105); test: BLI, antibody on sensor
T6 construct: bought heterodimer

[9] = target: T5, human CD3E&G complex (Sino Biological …); test: SPR, antigen on chip
Description: (§1) The CD3 equilibrium dissociation constant (KD) of Her2×CD3 bispecific antibody was determined using Biacore (GE Healthcare, T200), and the specific method is as follows:
(§2) The human CD3E&G antigen (Sino Biological Inc., CT041-H0305H) and Cynomolgus monkey CD3E&D antigen protein (Sino Biological Inc., CT032-00323H) were coupled to the chip surface. Afterwards, the affinity and kinetic constants were obtained by detecting the binding and dissociation between the chip surface antigen and the antibody in the mobile phase. The method includes chip preparation and affinity detection. 10-fold diluted 10×HBS-EP+(BR-1006-69, GE Healthcare) was used as the experimental buffer during measurement. […] After coupling, 1 M ethanolamine was injected to block the remaining activation sites. Affinity detection cycle is carried out for each concentration of antibody, and each cycle includes binding to antibody with this concentration and chip regeneration. The antibody after serial dilution (Her2-sp34.24: initial concentration 32 nM, 2 folds serial dilution; Her2-sp34.87: initial concentration 200 nM, 2 folds serial dilution; Her2-sp34.80, Her2-sp34.97, Her2-sp34.99, Her2-sp34.101: initial concentration 800 nM, 2 folds serial dilution; all dilute 5 concentration points), flows through the chip surface from low concentration to high concentration at 30 μl/min of the flow rate, with a binding time of 180 s and a dissociation time of 600 s. Finally, 10 mM Glycine pH 1.5 (BR-1003-54, GE Healthcare) was used to regenerate the chip. The data results were analyzed using the Biacore T200 analysis software (version 3.1), and the analysis model used was 1:1 combined model for dynamic analysis.

[10] = target: T6, cynomolgus monkey CD3 E&D complex …; test: SPR, antigen on chip
Description: as §1, §2

T4 sequence (P07766 23-207, chain 1 of 3): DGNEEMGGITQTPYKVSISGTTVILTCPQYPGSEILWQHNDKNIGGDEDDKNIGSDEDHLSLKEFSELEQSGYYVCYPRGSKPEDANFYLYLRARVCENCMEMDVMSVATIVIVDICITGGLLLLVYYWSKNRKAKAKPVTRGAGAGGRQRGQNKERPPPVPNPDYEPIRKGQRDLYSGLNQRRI
T4 sequence (P04234 22-171, chain 2 of 3): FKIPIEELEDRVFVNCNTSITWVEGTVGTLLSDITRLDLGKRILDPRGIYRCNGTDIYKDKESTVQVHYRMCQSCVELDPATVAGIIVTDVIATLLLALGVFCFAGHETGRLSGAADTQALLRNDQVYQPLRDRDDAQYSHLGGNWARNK
T4 sequence (P09693 23-182, chain 3 of 3): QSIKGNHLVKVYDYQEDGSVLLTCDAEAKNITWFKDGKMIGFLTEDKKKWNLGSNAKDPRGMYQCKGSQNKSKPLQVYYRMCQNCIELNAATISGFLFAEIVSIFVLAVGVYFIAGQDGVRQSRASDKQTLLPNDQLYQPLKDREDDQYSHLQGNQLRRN
T6 sequence (Q95LI5 22-117, chain 1 of 2): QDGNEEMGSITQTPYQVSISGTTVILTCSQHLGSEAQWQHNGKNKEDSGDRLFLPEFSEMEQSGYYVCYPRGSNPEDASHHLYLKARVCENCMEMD
T6 sequence (Q95LI8 22-105, chain 2 of 2): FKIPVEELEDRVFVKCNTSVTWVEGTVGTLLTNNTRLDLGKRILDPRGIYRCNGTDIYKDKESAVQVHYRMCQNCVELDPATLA
T2 sequence (P07766 23-126, chain 1 of 2): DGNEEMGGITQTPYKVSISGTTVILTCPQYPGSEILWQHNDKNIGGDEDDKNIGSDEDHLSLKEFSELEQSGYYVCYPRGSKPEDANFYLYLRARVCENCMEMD
T2 sequence (P04234 22-105, chain 2 of 2): as the sequence (Q95LI8 22-105, chain 2 of 2) above, with V5I, K15N, V20I, T32S, N33D, N34I, A64T, N74S, L83V counted along it
T5 sequence (P07766 23-126, chain 1 of 2): as the sequence (P07766 23-126, chain 1 of 2) above
T5 sequence (P09693 23-116, chain 2 of 2): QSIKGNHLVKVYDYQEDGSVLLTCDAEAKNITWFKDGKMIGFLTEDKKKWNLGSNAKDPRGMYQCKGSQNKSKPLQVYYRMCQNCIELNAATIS

- Kd [2]: 446 nM
- koff [2]: 0.169 s⁻¹
- kon [2]: 379000 M⁻¹ s⁻¹
- Kd [3]: 0.57 nM
B3: 033 (bispecific antibody, human IgG1, kappa, lambda, L234A L235A)
heavy 1: not shown
light 1: not shown
heavy 2: not shown
light 2: QAVVTQEPSLTVSPGGTVTLTCRSSTGAVTTSNYANWVQQKPGQAPRGLIGGTNKRAPGVPARFSGSLLGDKAALTLLGAQPEDEAEYYCALWYSNLWVFGQGTKLTVLGQPKAAPSVTLFPPSSEELQANKATLVCLISDFYPGAVTVAWKADSSPVKAGVETTTPSKQSNNKYAASSYLSLTPEQWKSHRSYSCQVTHEGSTVEKTVAPTECS
notes: 1+1, IgG1 LALA knob-into-hole; also called CLDN18.2xCD3 bispecific antibody 033; HB37A6 x HzSP34.97

- EC50 [4]: 1.25 nM
- Kd [5]: 0.975 nM
- koff [5]: 0.000234 s⁻¹
- kon [5]: 240000 M⁻¹ s⁻¹
- Kd [6]: 8 nM
- koff [6]: 0.00179 s⁻¹
- kon [6]: 224000 M⁻¹ s⁻¹
- Kd [7]: 0.718 nM
- koff [7]: 0.00247 s⁻¹
- kon [7]: 3.44e+06 M⁻¹ s⁻¹
- Kd [8]: 0.738 nM
- koff [8]: 0.000941 s⁻¹
- kon [8]: 1.28e+06 M⁻¹ s⁻¹
B4: hzsp34.24 (antibody, human IgG1, lambda, L234A L235A, V domains shown)
VH: EVQLVESGGGLVQPGGSLKLSCAASGFTFNTYAMNWVRQASGKGLEWVGRIRSKYNNYATYYADSVKDRFTISRDDSKSTLYLQMNSLKTEDTAVYYCARHGNFGQSYVSWFAYWGQGTTVTVSS
VL: QAVVTQEPSLTVSPGGTVTLTCRSSTGAVTTSNYANWVQQKPGQAPRGLIGGTNKRAPGVPARFSGSLLGDKAALTLLGAQPEDEAEYYCALWYSNLWVFGQGTKLTVLG
notes: IgG1 L234A L235A, lambda; parent of the CDR mutants

- Kd [9]: 361 nM
- koff [9]: 0.191 s⁻¹
- kon [9]: 528000 M⁻¹ s⁻¹
- Kd [10]: 327 nM
- koff [10]: 0.177 s⁻¹
- kon [10]: 543000 M⁻¹ s⁻¹
B6: Her2-hzsp34.97 (bispecific antibody, IgG1, V domains shown)
VH 1: not shown
VL 1: not shown
VH 2: B4 VH with Y55A, N56G, N57G
VL 2: QAVVTQEPSLTVSPGGTVTLTCRSSTGAVTTSNYANWVQQKPGQAPRGLIGGTNKRAPGVPARFSGSLLGDKAALTLLGAQPEDEAEYYCALWYSNLWVFGQGTKLTVL
notes: 1+1 trastuzumab x hzsp34.97, IgG1 LALA knob-into-hole; also called Her2-sp34.97; copies: 1 + 1 + 1 + 1

- Kd [9]: 627 nM
- koff [9]: 0.0817 s⁻¹
- kon [9]: 130000 M⁻¹ s⁻¹
- Kd [10]: 1200 nM
- koff [10]: 0.1 s⁻¹
- kon [10]: 83400 M⁻¹ s⁻¹
B7: Her2-hzsp34.99 (bispecific antibody, IgG1, V domains shown)
VH 1: not shown
VL 1: not shown
VH 2: B4 VH with F104A, G105Y
VL 2: B6 VL 2
notes: 1+1 trastuzumab x hzsp34.99, IgG1 LALA knob-into-hole; also called Her2-sp34.99; copies: 1 + 1 + 1 + 1

- EC50 [4]: 91.9 nM
- Kd [7]: 16.8 nM
- koff [7]: 0.00515 s⁻¹
- kon [7]: 307000 M⁻¹ s⁻¹
- Kd [8]: 15.3 nM
- koff [8]: 0.003 s⁻¹
- kon [8]: 196000 M⁻¹ s⁻¹
B8: hzsp34.40 (antibody, human IgG1, kappa, L234A L235A, V domains shown)
VH: B4 VH with G49A
VL: EIVMTQSPATLSVSPGERATLSCRSSTGAVTTSNYANWVQQKPGQAPRGLIGGTNKRAPGVPARFSGSGSGTEFTLTISSLQSEDFAVYYCALWYSNLWVFGQGTKLTVLR
notes: IgG1 L234A L235A, kappa

- EC50 [4]: 122 nM
- Kd [7]: 18.4 nM
- koff [7]: 0.0065 s⁻¹
- kon [7]: 353000 M⁻¹ s⁻¹
- Kd [8]: 26.9 nM
- koff [8]: 0.00521 s⁻¹
- kon [8]: 194000 M⁻¹ s⁻¹
B11: hzsp34.45 (antibody, human IgG1, kappa, L234A L235A, V domains shown)
VH: B4 VH with G49A
VL: B8 VL with T72D
notes: IgG1 L234A L235A, kappa

The next lines start with the binder.

B1: 030 (bispecific antibody, human IgG1, kappa, lambda, L234A L235A)
heavy 1: not shown
light 1: not shown
heavy 2: not shown
light 2: B3 light 2
notes: 1+1, IgG1 LALA knob-into-hole; also called CLDN18.2xCD3 bispecific antibody 030; HB37A6 x HzSP34.24
- EC50 of killing of DAN-G-hCLDN18.2 cells by PBMC [1]: < 0.1 pM
- EC50 of killing of NUGC-4 cells by PBMC [1]: < 0.001 nM
- Kd [2]: 7.46 nM
- koff [2]: 0.00516 s⁻¹
- kon [2]: 693000 M⁻¹ s⁻¹
- Kd [3]: 0.576 nM
- koff [3]: 0.0002 s⁻¹
- kon [3]: 347000 M⁻¹ s⁻¹

B2: 032 (bispecific antibody, human IgG1, kappa, lambda, L234A L235A)
heavy 1: not shown
light 1: not shown
heavy 2: not shown
light 2: B3 light 2
notes: 1+1, IgG1 LALA knob-into-hole; also called CLDN18.2xCD3 bispecific antibody 032; HB37A6 x HzSP34.87
- EC50 of killing of DAN-G-hCLDN18.2 cells by PBMC [1]: < 0.1 pM
- EC50 of killing of NUGC-4 cells by PBMC [1]: < 0.001 nM
- Kd [2]: 89.1 nM
- koff [2]: 0.0718 s⁻¹
- kon [2]: 807000 M⁻¹ s⁻¹
- Kd [3]: 0.57 nM

B5: hzsp34.38 (antibody, human IgG1, kappa, L234A L235A, V domains shown)
VH: B4 VH with Q106N
VL: B8 VL
notes: IgG1 L234A L235A, kappa
- EC50 [4]: 7.85 nM
- Kd [7]: 12.7 nM
- koff [7]: 0.00505 s⁻¹
- kon [7]: 397000 M⁻¹ s⁻¹
- Kd [8]: 6.36 nM
- koff [8]: 0.00183 s⁻¹
- kon [8]: 288000 M⁻¹ s⁻¹

B9: Her2-hzsp34.101 (bispecific antibody, IgG1, V domains shown)
VH 1: not shown
VL 1: not shown
VH 2: B4 VH with Y108A, V109A
VL 2: B6 VL 2
notes: 1+1 trastuzumab x hzsp34.101, IgG1 LALA knob-into-hole; also called Her2-sp34.101; copies: 1 + 1 + 1 + 1
- Kd [9]: 159 nM
- koff [9]: 0.101 s⁻¹
- kon [9]: 637000 M⁻¹ s⁻¹
- Kd [10]: 179 nM
- koff [10]: 0.0987 s⁻¹
- kon [10]: 551000 M⁻¹ s⁻¹

B10: hzsp34.42 (antibody, human IgG1, kappa, L234A L235A, V domains shown)
VH: B4 VH with S79N, Q106N
VL: B8 VL with T72D
notes: IgG1 L234A L235A, kappa
- EC50 [4]: 39.2 nM
- Kd [7]: 14.7 nM
- koff [7]: 0.00526 s⁻¹
- kon [7]: 357000 M⁻¹ s⁻¹
- Kd [8]: 10.2 nM
- koff [8]: 0.00248 s⁻¹
- kon [8]: 243000 M⁻¹ s⁻¹
